According to IntAct's records for PubMed 17396155:

B1: General receptor for phosphoinositides 1-associated scaffold protein (Rattus norvegicus (Rat)), Q8R4T5 (parent)
chain: MTLRRLRKLQQKEEATAAPDLAGRAPDSEAARAAPTPSGPPAAAAPPGAPGDELYAALEDYHPAELYRALAVSGGTLPRRKGSGFRWKNFTQSPEQQRKVLTLEKGDNQTFGFEIQTYGLHHREEQRVEMVTFVCRVHESSPAQLAGLTPGDTIASVNGLNVEGIRHREIVDIIKASGNVLRLETLYGTSIRKAELEARLQYLKQTLYEKWGEYRSLMVQEQRLVHGLVVKDPSIYDTLESVRSCLYGAGLLPGSLPFGPLLAAPGGARGGSRRAKGDTDDAVYHTCFFGGAEPQALPPPPPPARAPGPGSAETPASVLCPAPRATLSRSASVRCAGPGGGGGGGAPGALWTEAREQALCGAGLRKTKYRSFRRRLLKFIPGLNRSLEEEESQL

Variants of: B1
Conditions: with grm5_rat Grm5, P31424
Chain of grm5_rat Grm5, P31424 (P31424 whole entry, looked up): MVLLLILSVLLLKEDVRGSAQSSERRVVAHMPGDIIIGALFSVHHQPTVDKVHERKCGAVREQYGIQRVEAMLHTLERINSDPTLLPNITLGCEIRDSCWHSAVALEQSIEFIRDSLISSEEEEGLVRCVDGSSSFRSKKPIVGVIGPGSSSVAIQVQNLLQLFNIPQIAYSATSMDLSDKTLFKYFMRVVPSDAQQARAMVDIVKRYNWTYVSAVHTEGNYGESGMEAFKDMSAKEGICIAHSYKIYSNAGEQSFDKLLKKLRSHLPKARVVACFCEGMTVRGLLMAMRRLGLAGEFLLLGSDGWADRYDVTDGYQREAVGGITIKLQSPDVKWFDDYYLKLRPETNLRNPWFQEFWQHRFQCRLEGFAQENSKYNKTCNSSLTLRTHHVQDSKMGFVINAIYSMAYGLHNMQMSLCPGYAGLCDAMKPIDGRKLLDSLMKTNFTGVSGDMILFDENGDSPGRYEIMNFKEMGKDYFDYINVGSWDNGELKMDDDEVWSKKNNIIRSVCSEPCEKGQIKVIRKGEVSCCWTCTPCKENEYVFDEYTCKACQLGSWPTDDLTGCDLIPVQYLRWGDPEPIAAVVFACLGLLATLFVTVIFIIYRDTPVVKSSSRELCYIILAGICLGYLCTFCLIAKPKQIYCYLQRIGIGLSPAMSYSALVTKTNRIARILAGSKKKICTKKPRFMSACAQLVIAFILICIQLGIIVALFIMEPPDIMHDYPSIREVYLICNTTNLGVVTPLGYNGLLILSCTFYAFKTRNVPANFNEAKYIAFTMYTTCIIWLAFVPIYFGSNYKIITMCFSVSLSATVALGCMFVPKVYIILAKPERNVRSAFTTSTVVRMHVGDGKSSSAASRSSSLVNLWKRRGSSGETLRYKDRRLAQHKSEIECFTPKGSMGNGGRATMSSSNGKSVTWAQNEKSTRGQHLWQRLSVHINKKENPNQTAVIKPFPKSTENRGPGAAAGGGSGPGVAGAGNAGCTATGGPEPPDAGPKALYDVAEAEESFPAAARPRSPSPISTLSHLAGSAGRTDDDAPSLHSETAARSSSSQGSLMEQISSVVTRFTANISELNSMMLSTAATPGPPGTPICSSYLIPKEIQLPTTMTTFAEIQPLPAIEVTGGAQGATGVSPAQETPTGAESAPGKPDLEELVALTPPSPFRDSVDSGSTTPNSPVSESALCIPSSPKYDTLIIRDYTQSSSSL

Variant	effect of a mutation on the interaction
E114K	decreasing interaction
